Here are results for 1 substance from paper PMC3524506.

This data set concerns OmpR-P-His6 (phosphorylated) (Yersinia enterocolitica O9 Ye9?). Description: EMSA. To be noted: 40 mM Tris-HCl pH 8.0, 100 mM KCl, 10 mM MgCl2, 5% glycerol, room temperature 30 min, scale: fold lower minimum binding amount than non-phosphorylated OmpR.

For inv promoter fragment 553 bp, the binding signal worked out at 3.
